Data reported in paper PMC12392863, “Natural Design of a Stabilized Cross‐β Fold: Structure of the FuA FapC from Pseudomonas Sp. UK4 Reveals a Critical Role for Stacking of Imperfect Repeats” (Advanced Materials (Deerfield Beach, Fla.), 2025).
Positions count from the first letter of the chain named. Names and notes keep the numbering of the source.

B1: FapC UK4 Asn200Ala (natural protein, Pseudomonas sp. UK4)
chain: GPAEKWKPTPAPTGTVAAAVTDTQVSKDNKFDDTKTLNNAGANGSLSNSKGNLGANIAAGSGNQQDNAAAITSSAGDAATVFAVADIYQESKDNKFTNKGTQNNALLNNSANNSSGNVGVNVAAGQGNQQKNNLAIVTADGKNVAAASNTEQVSLDNHFLNEASSKHSYKPQYVVANAGLLNSANNASGNIGVNVAAGAGNQQSNTLTLGSGCTVCAAGTGSKLAF
notes: FapC, Pseudomonas sp; UK4, point mutant made on the FapC UK4 plasmid; Same construct as m1 but for the mutation; source: E. coli BL21 (DE3), purified (Ni-NTA in 7.5 M guanidine hydrochloride), desalted
B2: FapC UK4 N145A (natural protein, Pseudomonas sp. UK4)
chain: B1 chain with N121A, A176N
notes: as for B1
B3: FapC UK4 Lys155Asp and Ser228Asp (natural protein, Pseudomonas sp. UK4)
chain: B1 chain with K131D, A176N, S204D
notes: FapC, Pseudomonas sp; UK4, double charge mutant made on the FapC UK4 plasmid; Same construct as m1 but for the mutations; also called cluster of four negative charges (Asp46, Asp90, Asp155, and Asp228); source: E. coli BL21 (DE3), purified (Ni-NTA in 7.5 M guanidine hydrochloride), desalted
B4: FapC UK4 Asp90Lys and Ser228Lys (natural protein, Pseudomonas sp. UK4)
chain: B1 chain with D66K, A176N, S204K
notes: FapC, Pseudomonas sp; UK4, double charge mutant made on the FapC UK4 plasmid; Same construct as m1 but for the mutations; also called cluster of three positive charges (Lys90, Lys155, and Lys228); source: E. coli BL21 (DE3), purified (Ni-NTA in 7.5 M guanidine hydrochloride), desalted
B5: FapC UK4 Asn87Ala (natural protein, Pseudomonas sp. UK4)
chain: B1 chain with N63A, A176N
notes: FapC, Pseudomonas sp; UK4, point mutant made on the FapC UK4 plasmid; Same construct as m1 but for the mutation; also called Asn87 mutant; source: E. coli BL21 (DE3), purified (Ni-NTA in 7.5 M guanidine hydrochloride), desalted
B6: FapC UK4 Q89A (natural protein, Pseudomonas sp. UK4)
chain: B1 chain with Q65A, A176N
notes: FapC, Pseudomonas sp; UK4, point mutant made on the FapC UK4 plasmid; Same construct as m1 but for the mutation; also called Gln89 mutant; source: E. coli BL21 (DE3), purified (Ni-NTA in 7.5 M guanidine hydrochloride), desalted
B7: FapC UK4 Gln227Ala (natural protein, Pseudomonas sp. UK4)
chain: B1 chain with A176N, Q203A
notes: as for B1
B8: FapC UK4 Asn229Ala (natural protein, Pseudomonas sp. UK4)
chain: B1 chain with A176N, N205A
notes: as for B1
B9: FapC UK4 Gly75Ala (natural protein, Pseudomonas sp. UK4)
chain: B1 chain with G51A, A176N
notes: as for B1
B10: FapC UK4 Gly84Ala (natural protein, Pseudomonas sp. UK4)
chain: B1 chain with G60A, A176N
notes: FapC, Pseudomonas sp; UK4, point mutant made on the FapC UK4 plasmid; Same construct as m1 but for the mutation; also called G84A; source: E. coli BL21 (DE3), purified (Ni-NTA in 7.5 M guanidine hydrochloride), desalted
B11: FapC UK4 Gly75Pro (natural protein, Pseudomonas sp. UK4)
chain: B1 chain with G51P, A176N
notes: as for B1

How the values were obtained:
[1] = target: FapC from Pseudomonas fluorescens Pf5, wild type (P. fluorescens Pf5); assay: seeded ThT fibrillation kinetics, global fit with AmyloFit; 5 µM FapC UK4 monomer with 0-10% v/v sonicated fibril seeds of UK4, PAO1, Pf5 or F1 FapC; 40 µM ThT, 50 mM Tris/HCl pH 7.4, 37 °C, no shaking; constants of monomer addition to (k+) and release from (Koff) fibrils; time in hours
[2] = target: FapC from Pseudomonas aeruginosa PAO1, wild type (Pseudomonas aeruginosa PAO1); assay: as above
[3] = target: FapC from Pseudomonas putida F1, wild type (Pseudomonas putida F1); assay: as above
[4] = target: FapC from Pseudomonas putida F1, wild type (Pseudomonas putida F1); assay: formic acid dissolution of fibrils with SDS-PAGE; mature fibrils in 0-100% formic acid, 30 min, room temperature; centrifuged; released monomer in the supernatant on SDS-PAGE, normalised to 100% FA
[5] = target: FapC from P. fluorescens Pf5, wild type (P. fluorescens Pf5) (UniProt P0DXF5); assay: as above
[6] = target: the molecule itself; assay: ThT fluorescence fibrillation kinetics; self-assembly into amyloid without seeds; 15 µM FapC (wt or mutant; wt also 1-15 µM), 50 mM Tris/HCl pH 7.4, 40 µM ThT, 37 °C, no shaking, followed for 120 h

Molecule | binding result [6] | further results
FapC from Pseudomonas sp. UK4, wild type (from UniProt P0DXF5 25-250) (natural protein) | – | koff [1]: 9.11e-13 s⁻¹; koff [2]: 3.94e-14 s⁻¹; koff [3]: 1.96e-15 s⁻¹
FapC from Pseudomonas putida F1, wild type (natural protein) | – | formic acid needed to dissolve half of the fibrils [4]: 70 % FA
FapC from P. fluorescens Pf5, wild type (from UniProt P0DXF5 25-250) (natural protein) | – | formic acid needed to dissolve half of the fibrils [5]: 70 % FA
B1 | binds | –
B2 | binds | –
B3 | binds | –
B4 | binds | –
B5 | binds | –
B6 | binds | –
B7 | binds | –
B8 | binds | –
B9 | binds | –
B10 | binds | –
B11 | binds | –
